Results on 2 molecules are retold here after patent US9273320B2, “Method of producing a sweet protein” (NOVOZYMES A/S, priority 2009, dated 2016).

The conditions of series [1]: Lamphear et al. 2005; cited from earlier work.
In series [2] the test system is test taste panel of three persons. In words: Sucrose replacement in yoghurt drink, sweetness in 23% Cheasy A38. It counts as in vivo, human. Here is the method: A test taste panel of three persons was made to evaluate brazzein sweetness in yoghurt drink. The yoghurt product Cheasy A38 (Arla Foods), which contains 0.1% milk fat, 4.3% milk protein, was diluted to a final conc. of 1% milk protein, with sucrose or a solution of brazzein produced in A. oryzae. […] Thus, at the present condition in 23% Cheasy A38, the brazzein batch is 930 times sweeter than sucrose on weight basis.
Furthermore, the sweetness of brazzein and sucrose were additive as 6% sucrose+75 mg/l brazzein, taste like 12.7%±0.6% (SD) sucrose in 23% Cheasy A38.

For series [3] the following is noted: background statement; cited from earlier work.
In series [4] the test system is test taste panel of six persons. In words: Sensory evaluation of the sweetness of brazzein compared to sucrose, in 20% skim milk. It counts as in vivo, human. Conditions: 50 mg/l brazzein in 20% skim milk. From the text: Sweet protein: The term “sweet protein” as used herein refers to a protein having an intense sweet taste which is suitable for sweetening of food, beverage and/or medication products for human consumption. On weight basis, a sweet protein according to the present invention may be at least 100, preferably at least 200, more preferably at least 500, and even more preferably at least 1,000, times sweeter than sucrose, when compared to a 2% solution of sucrose. For purposes of the present invention, comparison of sweetness may be determined by testing human perception of sweetness of the protein against known controls using varied concentrations of the protein being diluted in water or in an aqueous solution which avoid adsorption on surfaces, such as 20% skim milk, e.g., as described in Example 3 of the present application. A test taste panel of six persons was used to evaluate the brazzein sweetness compared to sucrose. The brazzein batch from Example 2 was diluted 30 fold to a final conc. of 50 mg/l with 20% skim milk in order to avoid adsorption on surfaces. The sweetness was estimated using a standard of 0%, 0.68%, 1.37%, 2.74%, 5.48%, 11.0%, 21.9% (w/v) sucrose diluted in 20% (v/v) skim milk. The sweetness of this 50 mg/l brazzein dilution corresponded to an average sweetness of 2.57% (w/v) sucrose±0.55% sucrose (SD). Thus, the brazzein batch is 510 times sweeter than sucrose on weight basis at the present condition. The sweet taste delay of the brazzein was estimated to be 1.5 sec±1.2 sec (SD).

The subject of series [5] is taste panel of three persons. In words: pH profile of the sweet taste of brazzein compared to sucrose, in 5 g/l whey protein. It counts as in vivo, human. Conditions: 75 mg/l brazzein. The method, then: A taste panel of three persons estimated the pH profile of the sweet taste of brazzein compared to sucrose. 5 g/l whey protein (Lacprodan DI-9224, Arla Foods Ingredients) with 0%, 2%, 4%, 6%, 8%, 10%, 12%, 14% and 16% sucrose or 75 mg/l brazzein was adjusted with H3PO4, Na2HPO4 or NaOH to a final pH of […], 4.0, 5.0, 7.0 and 9.0.

For series [6] the following is noted: background statement; cited from earlier work. This is another data set of the same source.

For “53-amino acid form: Natural brazzein form lacking the N-terminal glutamine or pyroglutamate; amino acids 2 to 54 of SEQ ID NO: 2 (QFTTILSIGITVFGLANTGAFAAPQPVPEAYAVSDPEAHPDDFAGMDANQLQK)”, the “sweetness relative to the form having an N-terminal pyroglutamate” value in series [1] is reported as “twice as sweet”.

B1: brazzein: Sweet protein of Pentadiplandra brazzeana Baillon or a recombinant form; tested batch secreted from Aspergillus oryzae (SEQ ID NO: 2) (protein)
chain: MQFTTILSIGITVFGLANTGAFAAPQPVPEAYAVSDPEAHPDDFAGMDANQLQKREDKCKKVYENYPVSKCQLANQCNYDCKLDKHARSGECFYDEKRNLQCICDYCEY
In the case of B1, the entries for the “times sweeter than sucrose on weight basis” value in series [2] (75 mg/l brazzein in 23% Cheasy A38) and in series [4] were 930 times and 510 times, respectively. Moreover, the “sweetness corresponding to sucrose” value in series [2] (75 mg/l brazzein in 23% Cheasy A38, SD 1%) was 7 % sucrose. For the same molecule, in series [2] (6% sucrose + 75 mg/l brazzein in 23% Cheasy A38, SD 0.6%), the “sweetness of brazzein plus sucrose, tastes like sucrose” value is reported as 12.7 % sucrose. Also, the sweet-taste delay sensation entry in series [2] (in the presence of 6% sucrose, 23% Cheasy A38) is listed as “almost removed”. In series [3], the solubility in water is above 50 mg/mL. The same molecule registered a sweet taste delay in series [4] (SD 1.2 sec) of 1.5 s. For the same molecule, in series [4] (panel of six, SD 0.55% sucrose), the “average sweetness corresponding to sucrose” value is listed as 2.57 % (w/v) sucrose. Also, the “sucrose equivalent sweet taste” value in series [5] (pH 2.0) is 6.0 % sucrose; in series [5] (pH 3.0), 6.0 % sucrose; in series [5] (pH 4.0), 4.3 % sucrose; in series [5] (pH 5.0) it was 6.3 % sucrose; in series [5] (pH 7.0), 5.0 % sucrose; in series [5] (pH 9.0) it was 2.7 % sucrose. For the same molecule, in series [6], the heat stability entry is on record as “can withstand heat”.
